Measurements as given in US20110076347A1 (BEN GURION UNIVERSITY OF THE NEGEV RESEARCH AND DEVELOPMENT …, published 2011).

T1: human recombinant calbindin D28k (human, UniProt P05937 1-261, limits assumed)
T1 sequence (looked up): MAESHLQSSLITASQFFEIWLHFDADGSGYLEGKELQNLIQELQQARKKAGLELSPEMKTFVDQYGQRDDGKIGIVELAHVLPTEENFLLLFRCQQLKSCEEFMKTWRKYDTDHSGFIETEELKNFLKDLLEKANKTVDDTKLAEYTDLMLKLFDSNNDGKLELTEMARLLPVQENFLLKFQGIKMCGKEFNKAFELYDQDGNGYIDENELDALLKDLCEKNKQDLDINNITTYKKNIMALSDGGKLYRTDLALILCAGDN


What follows are molecules tested against human brain inositol monophosphatase (IMPase), in postmortem crude homogenate (human) (UniProt P29218) (assay: cell-based or functional assay).
Chain of human brain inositol monophosphatase (IMPase), in postmortem crude homogenate (human) (P29218 whole entry): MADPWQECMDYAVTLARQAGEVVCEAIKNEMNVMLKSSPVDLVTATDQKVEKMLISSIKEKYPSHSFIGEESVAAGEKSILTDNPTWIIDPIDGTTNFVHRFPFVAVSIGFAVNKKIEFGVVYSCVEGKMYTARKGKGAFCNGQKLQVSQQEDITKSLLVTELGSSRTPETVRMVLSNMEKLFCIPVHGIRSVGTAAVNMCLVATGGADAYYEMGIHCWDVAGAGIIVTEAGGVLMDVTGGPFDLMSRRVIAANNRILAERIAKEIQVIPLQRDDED

Molecule | human brain IMPase activity [fold]
human recombinant calbindin D28k (from UniProt P05937 1-261) | 3

What follows are molecules tested against T1, human recombinant calbindin D28k (assay: cell-based or functional assay).

Molecule | % Inhibition of Calbindin Activation [%]
KHIKPS [Peptide 7 (Lys-His-Ile-Lys-Pro-Ser)] | 56
IKEAYP [Peptide 3 (Ile-Lys-Glu-Ala-Tyr-Pro)] | 100
IAEKYP [Peptide 4 (Ile-Ala-Glu-Lys-Tyr-Pro)] | 89
IKEKY [Peptide 9 (Ile-Lys-Glu-Lys-Tyr)] | 0
IAAAYP [Peptide 8 (Ile-Ala-Ala-Ala-Tyr-Pro)] | 0
SYEHYP [Peptide 5 (Ser-Tyr-Glu-His-Lys-Pro)] | 56
IKEKYP [Peptide 1 (Ile-Lys-Glu-Lys-Tyr-Pro)] | 78
IAEAYP [Peptide 6 (Ile-Ala-Glu-Ala-Tyr-Pro)] | 0
IKAKYP [Peptide 2 (Ile-Lys-Ala-Lys-Tyr-Pro)] | 100
KEK [Peptide 10 (Lys-Glu-Lys)] | 0
